Laboratory results: PMC5389710 (Nucleic Acids Research, 2016)

Experiments:
Test in all cases: ITC
[1] = target: Xenopus laevis core histone H2B (X. laevis, UniProt P02281 1-126)
[2] = target: Chicken erythrocyte H3–H4 histone dimer (chicken, UniProt P84229 1-136; P62801 1-103)
[3] = target: Xenopus laevis core histone H3 (X. laevis, UniProt P84233 1-136)

B1: Arabidopsis thaliana NAP1-related protein 1 (NRP1) (natural protein)
chain: MVADKSKKSKIEEKGEEENLEQIDAELVLSIEKLQEIQDDLEKINEKASDEVLEVEQKYNVIRKPVYDKRNEVIQSIPGFWMTAFLSHPALGDLLTEEDQKIFKYLNSLEVEDAKDVKSGYSITFHFTSNPFFEDAKLTKTFTFLEEGTTKITATPIKWKEGKGLPNGVNHDDKKGNKRALPEESFFTWFTDAQHKEDAGDEIHDEVADIIKEDLWSNPLTYFNNDADEEDFDGDDDGDEEGEEDDDDEEEEDGEE
Kd [1]: 9.6 µM | Kd [2]: 0.4 µM | Kd [3]: 20 µM
